Test results published in the supplement of paper PMC7125110.
± gives the standard error. Fewer inactive variants are shown than the library holds.

B1: glmS ribozyme (parent)
chain: AUAAAAGCGCCAGAACUACAGAAAUGUAGUUGACGAGGAGGAGGUUUAUCGAAUUUUCGGCGGAUGCCUCCAAA

What was measured:
Conditions in all cases: with glucosamine-6-phosphate
glucosamine-6-phosphate [1] = variants of: B1; assay: self-cleavage kobs at 40 uM GlcN6P; higher = faster cleavage; RNA array
Procedure, shortened: (§1)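 Barcoded ribozyme variants were transcribed in situ on sequenced MiSeq chips by E. coli RNA polymerase. At 37 °C, a hybridised Cy3 probe tracked them while glucosamine-6-phosphate (40 μM to 10 mM) in HEPES/KCl/Mg(OAc)2 buffer flowed in and tiles were imaged over ~14 h. Per-tile medians of signals normalised to baseline and to non-cleaving reference variants were fit to one- or two-exponential decays, giving kobs. kcat and KM came from weighted Michaelis–Menten fits across concentrations.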

glucosamine-6-phosphate [2] = variants of: B1; assay: self-cleavage kobs at 160 uM GlcN6P; higher = faster cleavage; RNA array
Procedure, shortened: as §1

glucosamine-6-phosphate [3] = variants of: B1; assay: self-cleavage kobs at 640 uM GlcN6P; higher = faster cleavage; RNA array
Procedure, shortened: as §1

glucosamine-6-phosphate [4] = variants of: B1; assay: self-cleavage kobs at 2500 uM GlcN6P; higher = faster cleavage; RNA array
Procedure, shortened: as §1

glucosamine-6-phosphate [5] = variants of: B1; assay: self-cleavage kobs at 10000 uM GlcN6P; higher = faster cleavage; RNA array
Procedure, shortened: as §1

Variant: A33U G44U A52U
- self-cleavage kobs at 40 uM GlcN6P (glucosamine-6-phosphate [1]): < 1e-05 s⁻¹
- self-cleavage kobs at 160 uM GlcN6P (glucosamine-6-phosphate [2]): < 1e-05 s⁻¹
- self-cleavage kobs at 640 uM GlcN6P (glucosamine-6-phosphate [3]): < 1e-05 s⁻¹
- self-cleavage kobs at 2500 uM GlcN6P (glucosamine-6-phosphate [4]): < 1e-05 s⁻¹

Variant: A12C A14C C70U
- self-cleavage kobs at 40 uM GlcN6P (glucosamine-6-phosphate [1]): < 1e-05 s⁻¹
- self-cleavage kobs at 2500 uM GlcN6P (glucosamine-6-phosphate [4]): 9.06e-05 ± 1.4e-05 s⁻¹
- self-cleavage kobs at 10000 uM GlcN6P (glucosamine-6-phosphate [5]): 8.48e-05 ± 1.8e-05 s⁻¹

Variant: U45A C67A
- self-cleavage kobs at 40 uM GlcN6P (glucosamine-6-phosphate [1]): 0.000364 ± 5.5e-05 s⁻¹
- self-cleavage kobs at 2500 uM GlcN6P (glucosamine-6-phosphate [4]): 0.00568 ± 0.0022 s⁻¹
- self-cleavage kobs at 10000 uM GlcN6P (glucosamine-6-phosphate [5]): 0.00719 ± 0.0014 s⁻¹

Variant: G29C G35U C58U
- self-cleavage kobs at 40 uM GlcN6P (glucosamine-6-phosphate [1]): < 1e-05 s⁻¹

Variant: A14C U30G C50A G60U G63U
- self-cleavage kobs at 40 uM GlcN6P (glucosamine-6-phosphate [1]): < 1e-05 s⁻¹
- self-cleavage kobs at 10000 uM GlcN6P (glucosamine-6-phosphate [5]): < 1e-05 s⁻¹

Variant: G40C G44C
- self-cleavage kobs at 40 uM GlcN6P (glucosamine-6-phosphate [1]): < 1e-05 s⁻¹
- self-cleavage kobs at 10000 uM GlcN6P (glucosamine-6-phosphate [5]): < 1e-05 s⁻¹

Variant: C11U G62C
- self-cleavage kobs at 40 uM GlcN6P (glucosamine-6-phosphate [1]): < 1e-05 s⁻¹
- self-cleavage kobs at 160 uM GlcN6P (glucosamine-6-phosphate [2]): < 1e-05 s⁻¹
- self-cleavage kobs at 640 uM GlcN6P (glucosamine-6-phosphate [3]): < 1e-05 s⁻¹
- self-cleavage kobs at 2500 uM GlcN6P (glucosamine-6-phosphate [4]): < 1e-05 s⁻¹

Variant: A14U G37U
- self-cleavage kobs at 40 uM GlcN6P (glucosamine-6-phosphate [1]): < 1e-05 s⁻¹
- self-cleavage kobs at 640 uM GlcN6P (glucosamine-6-phosphate [3]): < 1e-05 s⁻¹
- self-cleavage kobs at 10000 uM GlcN6P (glucosamine-6-phosphate [5]): < 1e-05 s⁻¹

Variant: G9U A48G
- self-cleavage kobs at 40 uM GlcN6P (glucosamine-6-phosphate [1]): < 1e-05 s⁻¹
- self-cleavage kobs at 160 uM GlcN6P (glucosamine-6-phosphate [2]): < 1e-05 s⁻¹
- self-cleavage kobs at 640 uM GlcN6P (glucosamine-6-phosphate [3]): < 1e-05 s⁻¹
- self-cleavage kobs at 10000 uM GlcN6P (glucosamine-6-phosphate [5]): < 1e-05 s⁻¹

Variant: C11U G13A A14C A52C G66A
- self-cleavage kobs at 40 uM GlcN6P (glucosamine-6-phosphate [1]): < 1e-05 s⁻¹
- self-cleavage kobs at 10000 uM GlcN6P (glucosamine-6-phosphate [5]): < 1e-05 s⁻¹

Variant: A6G C11U A33U G60U
- self-cleavage kobs at 40 uM GlcN6P (glucosamine-6-phosphate [1]): < 1e-05 s⁻¹
- self-cleavage kobs at 640 uM GlcN6P (glucosamine-6-phosphate [3]): < 1e-05 s⁻¹
- self-cleavage kobs at 2500 uM GlcN6P (glucosamine-6-phosphate [4]): < 1e-05 s⁻¹
- self-cleavage kobs at 10000 uM GlcN6P (glucosamine-6-phosphate [5]): < 1e-05 s⁻¹

Variant: A64G U65A C68G
- self-cleavage kobs at 40 uM GlcN6P (glucosamine-6-phosphate [1]): < 1e-05 s⁻¹

Variant: C8U G9A A15C A36G U49C U57G
- self-cleavage kobs at 40 uM GlcN6P (glucosamine-6-phosphate [1]): < 1e-05 s⁻¹

Variant: A6G A33G A48G A64U
- self-cleavage kobs at 40 uM GlcN6P (glucosamine-6-phosphate [1]): < 1e-05 s⁻¹
- self-cleavage kobs at 10000 uM GlcN6P (glucosamine-6-phosphate [5]): < 1e-05 s⁻¹

Variant: G32U G62U
- self-cleavage kobs at 40 uM GlcN6P (glucosamine-6-phosphate [1]): < 1e-05 s⁻¹
- self-cleavage kobs at 160 uM GlcN6P (glucosamine-6-phosphate [2]): < 1e-05 s⁻¹
- self-cleavage kobs at 640 uM GlcN6P (glucosamine-6-phosphate [3]): < 1e-05 s⁻¹
- self-cleavage kobs at 2500 uM GlcN6P (glucosamine-6-phosphate [4]): < 1e-05 s⁻¹
- self-cleavage kobs at 10000 uM GlcN6P (glucosamine-6-phosphate [5]): < 1e-05 s⁻¹

Variant: A12U A39U
- self-cleavage kobs at 40 uM GlcN6P (glucosamine-6-phosphate [1]): 0.00122 ± 0.00014 s⁻¹
- self-cleavage kobs at 160 uM GlcN6P (glucosamine-6-phosphate [2]): 0.0029 ± 0.00074 s⁻¹
- self-cleavage kobs at 640 uM GlcN6P (glucosamine-6-phosphate [3]): 0.0129 ± 0.0047 s⁻¹
- self-cleavage kobs at 2500 uM GlcN6P (glucosamine-6-phosphate [4]): 0.00925 ± 0.0022 s⁻¹
- self-cleavage kobs at 10000 uM GlcN6P (glucosamine-6-phosphate [5]): 0.0541 ± 0.013 s⁻¹

Variant: C8U U45G
- self-cleavage kobs at 40 uM GlcN6P (glucosamine-6-phosphate [1]): < 1e-05 s⁻¹
- self-cleavage kobs at 160 uM GlcN6P (glucosamine-6-phosphate [2]): < 1e-05 s⁻¹
- self-cleavage kobs at 640 uM GlcN6P (glucosamine-6-phosphate [3]): < 1e-05 s⁻¹
- self-cleavage kobs at 2500 uM GlcN6P (glucosamine-6-phosphate [4]): < 1e-05 s⁻¹

Variant: G9U A33U A53U C61G
- self-cleavage kobs at 40 uM GlcN6P (glucosamine-6-phosphate [1]): < 1e-05 s⁻¹

Variant: A14G C50G C68U U69A C71G
- self-cleavage kobs at 40 uM GlcN6P (glucosamine-6-phosphate [1]): 0.000105 ± 1.7e-05 s⁻¹
- self-cleavage kobs at 2500 uM GlcN6P (glucosamine-6-phosphate [4]): 0.000379 ± 8.1e-05 s⁻¹
- self-cleavage kobs at 10000 uM GlcN6P (glucosamine-6-phosphate [5]): 0.000199 ± 5.1e-05 s⁻¹

Variant: G9A C34A G44U U54A C68A
- self-cleavage kobs at 40 uM GlcN6P (glucosamine-6-phosphate [1]): < 1e-05 s⁻¹

Variant: G32C G35U
- self-cleavage kobs at 40 uM GlcN6P (glucosamine-6-phosphate [1]): < 1e-05 s⁻¹
- self-cleavage kobs at 160 uM GlcN6P (glucosamine-6-phosphate [2]): < 1e-05 s⁻¹
- self-cleavage kobs at 640 uM GlcN6P (glucosamine-6-phosphate [3]): < 1e-05 s⁻¹
- self-cleavage kobs at 2500 uM GlcN6P (glucosamine-6-phosphate [4]): < 1e-05 s⁻¹
- self-cleavage kobs at 10000 uM GlcN6P (glucosamine-6-phosphate [5]): < 1e-05 s⁻¹

Variant: A48U C58U
- self-cleavage kobs at 40 uM GlcN6P (glucosamine-6-phosphate [1]): < 1e-05 s⁻¹
- self-cleavage kobs at 160 uM GlcN6P (glucosamine-6-phosphate [2]): < 1e-05 s⁻¹
- self-cleavage kobs at 640 uM GlcN6P (glucosamine-6-phosphate [3]): < 1e-05 s⁻¹
- self-cleavage kobs at 2500 uM GlcN6P (glucosamine-6-phosphate [4]): < 1e-05 s⁻¹
- self-cleavage kobs at 10000 uM GlcN6P (glucosamine-6-phosphate [5]): < 1e-05 s⁻¹
